Experimental data from article PMC5645467.

Target: ΔIBB-importin α1 (as used for ITC) (mouse), P52293
Assay: ITC; nano-ITC, 20 °C; GST-RCC1 (300 µM) injected in 2.0 µl increments into 195 µl of ΔIBB-importin α3 or α1 (100 µM); 20 mM Tris-HCl pH 8.0, 150 mM NaCl, 5 mM BME, 0.1 mM PMSF; single set of binding sites model; triplicate
Conditions: remark: other sources report otherwise

- Kd: 5.4 µM
- stoichiometry N: < 1
B1: GST-RCC1 (full-length human RCC1, wild type), P18754 1-421 (natural protein)
chain: MSPKRIAKRRSPPADAIPKSKKVKVSHRSHSTEPGLVLTLGQGDVGQLGLGENVMERKKPALVSIPEDVVQAEAGGMHTVCLSKSGQVYSFGCNDEGALGRDTSVEGSEMVPGKVELQEKVVQVSAGDSHTAALTDDGRVFLWGSFRDNNGVIGLLEPMKKSMVPVQVQLDVPVVKVASGNDHLVMLTADGDLYTLGCGEQGQLGRVPELFANRGGRQGLERLLVPKCVMLKSRGSRGHVRFQDAFCGAYFTFAISHEGHVYGFGLSNYHQLGTPGTESCFIPQNLTSFKNSTKSWVGFSGGQHHTVCMDSEGKAYSLGRAEYGRLGLGEGAEEKSIPTLISRLPAVSSVACGASVGYAVTKDGRVFAWGMGTNYQLGTGQDEDAWSPVEMMGKQLENRVVLSVSSGGQHTVLLVKDKEQS
